Reference: publication PMC2148171 (The Journal of Cell Biology, 1998)
Where two headings read alike, the source gives them in different places.

B1: baculovirus produced 6x histidine-tagged recombinant CHO cell MCAK (mitotic centromere-associated kinesin) (natural protein, Chinese hamster (CHO cell MCAK), UniProt P70096 1-718, looked up)
chain: MESLPARLFPGLSIKIQRSNGLIHSANISTVNVEKSCVSVEWIEGGNTKGKEIDFDDVAAINPELLQLLPLHPKDNLPLQENVTVPKQKRRSVNSKIPAPKEGLRSRSTRMSTVPEVRIATQENEMEVELPVATNSRKQFSVATGLPRPSCPAMTELPLSMVSEEAEEQVHPTRSTSSANPARRKSCIVKEMEKMKNKREEKRAQNSEIRIKRAQEYDSSFPNWEFARMIKEFRVTIECHPLTLTDPTEEHRICVCVRKRPLNKQELAKKEIDVISVPSKCLLFVHEPKLKVDLTKYLENQAFCFDFAFDETASNEVVYRFTARPLVQTIFEGGKATCFAYGQTGSGKTHTMGGDLSGKSQNTSKGIYAMASRDVFLLKSQPRYRNLNLEVYVTFFEIYNGKVFDLLNKKAKLRVLEDSKQQVQVVGLQEYLVNCADDVIKMLNMGSACRTSGQTFANSNSSRSHACFQILLRAKGRLHGKFSLVDLAGNERGADTSSADRQTRMEGAEINKSLLALKECIRALGQNKAHTPFRESKLTQVLRDSFIGENSRTCMIAMISPGISSCEYTLNTLRYADRVKELSPHSGLSGEQPIQMETEEMEASSNGTSLAVNFKEEEELSSQMSSFNEAMSQIRELEERAMEELREIIQQGPGWLELSEMTDQPDYDLETFVNKAESALTQQTKHFSALREVIKALRVAMQLEEQASKQMNSKKRHQ
B2: MCAK (mitotic centromere-associated kinesin) in CHO cells (natural protein, Chinese hamster (endogenous in CHO-K1), UniProt P70096 1-718, looked up)
chain: B1 chain

Legend:
[1] = molecular target: the molecule itself; assay: SEC + other: sucrose density gradient centrifugation
[2] = molecular target: the molecule itself; assay: as above; remark: listed apart in the source

| Protein | stoichiometry N [1] | stoichiometry N [2] |
| --- | --- | --- |
| B1 | 2 |  |
| B2 |  | 2 |
